In patent US20260078196A1 (TJ BIOPHARMA SHANGHAI, published 2026):
Read-outs that look alike come from different tables or passages of the source.

Legend:
huMUC16, AA14198-14507 = target: T1, huMUC16, AA14198-14507; assay: binding ELISA on huMUC16 AA14198-14507
T1 chain: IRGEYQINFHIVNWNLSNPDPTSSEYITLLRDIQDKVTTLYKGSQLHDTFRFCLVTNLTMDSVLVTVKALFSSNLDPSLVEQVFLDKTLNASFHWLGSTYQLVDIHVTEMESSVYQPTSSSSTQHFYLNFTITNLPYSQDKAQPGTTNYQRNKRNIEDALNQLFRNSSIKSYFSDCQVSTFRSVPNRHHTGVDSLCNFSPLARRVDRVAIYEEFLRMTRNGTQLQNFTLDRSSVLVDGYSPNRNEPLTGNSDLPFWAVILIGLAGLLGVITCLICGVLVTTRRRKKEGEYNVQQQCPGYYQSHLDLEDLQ

[1] = target: T2, HEK293-MUC16 (13810-14507) (human, UniProt Q8WXI7 13810-14507); assay: flow cytometry (MFI GeoMean) on HEK293-MUC16 (13810-14507) cells, nM is the unit of the x axis Log10[Ab] (nM)
T2 construct: range 13810-14507; also called MUC16 overexpressed HEK293 cells
T2 sequence: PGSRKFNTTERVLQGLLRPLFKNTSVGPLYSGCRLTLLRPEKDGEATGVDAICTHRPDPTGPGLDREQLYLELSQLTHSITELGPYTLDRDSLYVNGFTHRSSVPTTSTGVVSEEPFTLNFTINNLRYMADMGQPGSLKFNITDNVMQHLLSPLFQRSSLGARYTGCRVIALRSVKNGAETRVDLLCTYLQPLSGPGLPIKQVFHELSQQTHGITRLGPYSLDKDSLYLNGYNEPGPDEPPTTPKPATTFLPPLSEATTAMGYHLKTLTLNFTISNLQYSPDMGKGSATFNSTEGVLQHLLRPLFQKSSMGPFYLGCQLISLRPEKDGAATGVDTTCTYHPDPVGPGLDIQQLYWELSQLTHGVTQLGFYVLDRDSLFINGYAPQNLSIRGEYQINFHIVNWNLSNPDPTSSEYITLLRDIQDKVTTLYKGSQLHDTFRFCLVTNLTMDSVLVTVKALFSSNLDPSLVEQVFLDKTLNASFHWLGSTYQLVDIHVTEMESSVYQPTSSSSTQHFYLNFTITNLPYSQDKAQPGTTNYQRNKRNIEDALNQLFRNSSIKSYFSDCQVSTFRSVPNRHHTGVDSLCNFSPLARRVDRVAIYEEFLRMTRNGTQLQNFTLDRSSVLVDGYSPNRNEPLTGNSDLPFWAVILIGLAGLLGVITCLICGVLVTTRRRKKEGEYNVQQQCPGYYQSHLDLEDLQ

human MUC16 on cells [2] = target: T3, human MUC16 on cells (human, UniProt Q8WXI7 1-14507); assay: flow cytometry (GMFI) on OVCAR3 cells, nM is the unit of the x axis Log10[Ab] (nM)
T3 construct: whole, on cells; also called huMUC16; MUC16 on OVCAR3 and SNU216 cells

human MUC16 on cells [3] = target: T3, human MUC16 on cells; assay: flow cytometry (MFI GeoMean) on OVCAR3 cells, nM is the unit of the x axis Log10[Ab] (nM)
huMUC16, AA13789-14451 = target: T4, huMUC16, AA13789-14451; assay: binding ELISA on huMUC16 AA13789-14451
T4 construct: also called MUC16 Antigen (human MUC16 AA13789-14451)
T4 chain: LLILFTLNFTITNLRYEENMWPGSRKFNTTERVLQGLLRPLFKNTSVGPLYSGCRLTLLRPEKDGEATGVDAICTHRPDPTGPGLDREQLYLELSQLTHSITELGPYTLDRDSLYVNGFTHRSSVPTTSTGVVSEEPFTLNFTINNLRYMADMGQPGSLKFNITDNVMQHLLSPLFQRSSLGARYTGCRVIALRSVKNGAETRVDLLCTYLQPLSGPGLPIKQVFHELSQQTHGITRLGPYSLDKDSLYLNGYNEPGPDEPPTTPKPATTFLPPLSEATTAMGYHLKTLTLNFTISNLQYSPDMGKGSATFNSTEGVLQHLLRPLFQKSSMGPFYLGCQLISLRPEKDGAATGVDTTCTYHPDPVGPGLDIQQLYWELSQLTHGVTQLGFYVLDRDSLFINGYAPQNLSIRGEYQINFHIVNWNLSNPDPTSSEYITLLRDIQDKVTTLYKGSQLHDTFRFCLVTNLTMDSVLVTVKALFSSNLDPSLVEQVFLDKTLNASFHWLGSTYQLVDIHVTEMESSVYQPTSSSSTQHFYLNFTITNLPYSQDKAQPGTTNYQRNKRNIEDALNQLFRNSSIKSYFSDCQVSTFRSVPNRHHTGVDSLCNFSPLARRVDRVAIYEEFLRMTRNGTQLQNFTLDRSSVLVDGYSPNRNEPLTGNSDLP

human MUC16 on cells [4] = target: T3, human MUC16 on cells; assay: flow cytometry (GMFI) on OVCAR3 cells; same value as in FIG. 11A, nM is the unit of the x axis
human MUC16 on cells [5] = target: T3, human MUC16 on cells; assay: flow cytometry (MFI GeoMean) on SNU216 cells, nM is the unit of the x axis Log10[Ab] (nM)
ROR1 antigen [6] = target: T5, ROR1 antigen (UniProt Q01973 30-406, limits assumed); assay: SPR, binding to ROR1
T5 construct: Soluble antigen of the Octet binning and of the SPR assay

ROR1 antigen [7] = target: T5, ROR1 antigen; assay: SPR on ROR1
ROR1 on cells [8] = target: T6, ROR1 on cells (UniProt Q01973 30-937); assay: flow cytometry (gMFI) on MDA-MB-231 cells
T6 construct: whole, on cells; also called ROR1 endogenous expressed tumor cell A549; ROR1-positive tumor cell lines

ROR1 on cells [9] = target: T6, ROR1 on cells; assay: flow cytometry (gMFI) on A549 cells
human CLDN6 on cells [10] = target: T7, human CLDN6 on cells (human, UniProt P56747 1-220); assay: flow cytometry (GMFI) on CHO-K1-CLDN6 cells
T7 construct: CHO-K1 cells stably expressing human CLDN6, and OVCAR3 / OV90 cells with endogenous CLDN6; also called CHO-K1-CLDN6; CLDN6 on OVCAR3 and OV90 cells
T7 sequence: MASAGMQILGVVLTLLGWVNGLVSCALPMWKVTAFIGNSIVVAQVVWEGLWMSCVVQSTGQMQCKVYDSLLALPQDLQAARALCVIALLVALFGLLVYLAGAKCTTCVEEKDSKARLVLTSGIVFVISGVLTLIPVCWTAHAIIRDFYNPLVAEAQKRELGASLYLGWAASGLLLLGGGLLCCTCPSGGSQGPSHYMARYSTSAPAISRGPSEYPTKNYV

human CLDN6 on cells [11] = target: T7, human CLDN6 on cells; assay: flow cytometry (GMFI) on OV90 cells
human CLDN6 on cells [12] = target: T7, human CLDN6 on cells; assay: flow cytometry (GMFI) on OVCAR3 cells
ROR1 on cells [13] = target: T6, ROR1 on cells; assay: flow cytometry (gMFI) on A549 cells; remark: listed apart in the source
ROR1 antigen [14] = target: T5, ROR1 antigen; assay: SPR on ROR1; remark: listed apart in the source
ROR1 antigen [15] = target: T5, ROR1 antigen; assay: SPR on ROR1; remark: listed apart in the source

B1: M16-2 (antibody, human IgG1, kappa, N297A, V domains shown)
VH: EVQLVESGGGLEQPGRSLRLSCTASGFAFGDHTMSWVRQAPGKGLEWVGFIRSRAYGGTTEYAASVKGRFTISRDDSKSIAYLQMDSLKTEDTAVYYCTSGGYDSSLHYYYYYHGMDVWGRGTTVTVSS
VL: not shown
notes: Benchmark anti-MUC16 antibody; also called benchmarker antibody M16-2
With B1 the binding result (huMUC16, AA14198-14507) was “no binding (tested: 100 nM)”, the EC50 [1] was 0.423 nM and the EC50 (human MUC16 on cells [2]) was 0.257 nM. The EC50 (human MUC16 on cells [3]) was 0.274 nM, the binding result (huMUC16, AA13789-14451) was “binds” and the EC50 (human MUC16 on cells [4]) was 0.257 nM. The EC50 (human MUC16 on cells [5]) was 0.152 nM.

B2: 4B-8F2 (humanized) or 4B-h8F2 (bispecific antibody, human IgG1, kappa)
heavy: not shown
light: DIVMTQTPLSLSVTPGQPASISCKSSQSLLHSNGKTYLNWYLQKPGQSPQLLIYLVSKLESGVPDRFSGSGSGTDFTLKISRVEAEDVGVYYCLQATYFPYTFGQGTKLEIKRTVAAPSVFIFPPSDEQLKSGTASVVCLLNNFYPREAKVQWKVDNALQSGNSQESVTEQDSKDSTYSLSSTLTLSKADYEKHKVYACEVTHQGLSSPVTKSFNRGEC
notes: Humanized ROR1 x 4-1BB BsAb
B2 was tested, and the Kd (ROR1 antigen [6]) was 237 nM, the koff (ROR1 antigen [7]) was 0.0592 s⁻¹ and the kon (ROR1 antigen [7]) was 250000 M⁻¹ s⁻¹. For the same binder, the “EC50 (read off the curve)” value (ROR1 on cells [8]) was ~0.01 nM and the “EC50 (read off the curve)” value (ROR1 on cells [9]) was ~0.03 nM.

B3: M16-1 (antibody, human IgG1, kappa, N297A, V domains shown)
VH: QVQLVESGGGLVKPGGSLRLSCAASGFTFSNYYMSWVRQAPGKGLEWISYISGRGSTIFYADSVKGRITISRDNAKNSLFLQMNSLRAEDTAVYFCVKDRGGYSPYWGQGTLVTVSS
VL: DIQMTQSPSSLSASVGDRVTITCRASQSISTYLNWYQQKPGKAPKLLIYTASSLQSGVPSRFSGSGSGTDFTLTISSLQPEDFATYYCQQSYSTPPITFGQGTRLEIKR
notes: also called benchmarker antibody M16-1
In the case of B3, the EC50 (human MUC16 on cells [2]) is reported as 0.192 nM, the binding result (huMUC16, AA13789-14451) is reported as “binds” and the EC50 (human MUC16 on cells [4]) is reported as 0.192 nM.

B4: parental CLDN6-1 antibody (antibody, V domains shown)
VH: QVQLQESGPGLVKPSETLSLTCTVSGYSITSGYYWNWIRQPPGKGLEWMGYISYSGSNNYNPSLKNRVTISRDTSKNQFSLKLSSVTAADTAVYYCARGGYYFDYWGQGTLVTVSS
VL: DIVMTQSPDSLAVSLGERATINCKSSQSLLNTNNQKNYLAWYQQKPGQPPKLLIYFASTRESGVPDRFSGSGSGTDFTLTISSLQAEDVAVYFCQQHYNAPRTFGGGTKVEIK
In the case of B4, the EC50 (human CLDN6 on cells [10]) is reported as 0.452 nM, the EC50 (human CLDN6 on cells [11]) is reported as 1.2 nM and the EC50 (human CLDN6 on cells [12]) is reported as 5.1 nM.

B5: humanized 8F2 anti-ROR1 mAb (antibody, V domains shown)
VH: QVQLVQSGAEVKKPGASVKVSCKASGYTFTTYVMHWVRQAPGQGLEWMGYINPYNGGIRYNEKFKGRVTMTRDTSTSTVYMELSSLRSEDTAVYYCARRERGVYYGMDEWGQGTLVTVSS
VL: DIVMTQTPLSLSVTPGQPASISCKSSQSLLHSNGKTYLNWYLQKPGQSPQLLIYLVSKLESGVPDRFSGSGSGTDFTLKISRVEAEDVGVYYCLQATYFPYTFGQGTKLEIK
notes: also called h8F2
B5: binds (ROR1 on cells [13]).

B6: 4B-BiR1(Humanized) or 4B-hBiR1 (bispecific antibody, human IgG1, kappa)
heavy: not shown
chain: DIVMTQTPLSLSVTPGQPASISCKSSQSLLHSNGKTYLNWYLQKPGQSPQLLIYLVSKLESGVPDRFSGSGSGTDFTLKISRVEAEDVGVYYCLQATYFPYTFGQGTKLEIKGGGGSGGGGSGGGGSQVQLVQSGAEVKKPGASVKVSCKASGYTFTTYVMHWVRQAPGQGLEWMGYINPYNGGIRYNEKFKGRVTMTRDTSTSTVYMELSSLRSEDTAVYYCARRERGVYYGMDEWGQGTLVTVSSAAEPKSSDKTHTCPPCPAPELLGGPSVFLFPPKPKDTLMISRTPEVTCVVVDVSHEDPEVKFNWYVDGVEVHNAKTKPREEQYNSTYRVVSVLTVLHQDWLNGKEYKCKVSNKALPAPIEKTISKAKGQPREPQVCTLPPSREEMTKNQVSLSCAVKGFYPSDIAVEWESNGQPENNYKTTPPVLDSDGSFFLVSKLTVDKSRWQQGNVFSCSVMHEALHNHYTQKSLSLSPGKGGGGSGGGGSGGGGSQVQLQESGGGLVQPGGSLRLSCAASGYTYSSNCMGWFRQAPGKGLEGVAVICTGGGSPSYADSVKGRFTISRDNAKNTLYLQMNSLRAEDTAVYYCAADLLRAGTPLSSYEFNYWGQGTLVTVSS
light: DIQMTQSPSSLSASVGDRVTITCRASQDIYSYLSWFQQKPGKAPKTLIYRANRLVDAVPSRFSGSGSGQDYTLTISSLQPEDFATYYCLQYDEFPYTFGQGTKLEIKRTVAAPSVFIFPPSDEQLKSGTASVVCLLNNFYPREAKVQWKVDNALQSGNSQESVTEQDSKDSTYSLSSTLTLSKADYEKHKVYACEVTHQGLSSPVTKSFNRGEC
notes: Humanized bi-paratopic ROR1 x 4-1BB antibody: h3C5 IgG half with VHH plus h8F2 scFv-Fc-VHH; also called 4-hiBiR1
B6 showed a Kd (ROR1 antigen [6]) of 12.1 nM, a koff (ROR1 antigen [14]) of 0.00114 s⁻¹ and a kon (ROR1 antigen [14]) of 93600 M⁻¹ s⁻¹. The “EC50 (read off the curve)” value (ROR1 on cells [8]) was ~0.06 nM and the “EC50 (read off the curve)” value (ROR1 on cells [9]) was ~0.1 nM.

B7: 4B-3C5 (humanized) or 4B-h3C5 (bispecific antibody, human IgG1, kappa)
heavy: not shown
light: B6 light
notes: Humanized ROR1 x 4-1BB BsAb; also called humanized 3C5 IgG x 4-1BB VHH
Binder B7 has a koff (ROR1 antigen [15]) of 0.00821 s⁻¹, a kon (ROR1 antigen [15]) of 104000 M⁻¹ s⁻¹ and a Kd (ROR1 antigen [6]) of 79.3 nM. For the same binder, the “EC50 (read off the curve)” value (ROR1 on cells [8]) was ~0.03 nM and the “EC50 (read off the curve)” value (ROR1 on cells [9]) was ~0.03 nM.
